{
  "source": "the supplement of paper PMC10724198",
  "note": "± gives the standard deviation of the averaged measurements.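 Note: PSI is a weighted mean of sequencing reads over stability bins, variants kept only with over 10 reads, mCherry proximal and sfGFP distal, peptide attached via GGGS linker.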",
  "data": [
    {"test_system": "Saccharomyces cerevisiae", "assay": "protein stability index of tFT-peptide fusion (C-terminal peptide) (PSI (0-1 scale)); higher = more stable (slower turnover)", "conditions": "genetic background: wild type; temperature: 30 C", "values": [
      {"sequence": "RGRLVVGAGRED", "protein stability index": "0.697 ± 0.049"},
      {"sequence": "RGRQRSDPPTRL", "protein stability index": "0.717 ± 0.061"},
      {"sequence": "RGRWLKNARLSM", "protein stability index": "0.634 ± 0.065"},
      {"sequence": "RGRWRVGWGVGD", "protein stability index": "0.67 ± 0.017"},
      {"sequence": "RGRWVDWLSFTF", "protein stability index": "0.7278 ± 0.0022"},
      {"sequence": "RGSPFTAWSVLR", "protein stability index": "0.753 ± 0.019"},
      {"sequence": "RGSPPDPRGRAG", "protein stability index": "0.685 ± 0.074"},
      {"sequence": "RGSRFVAGGGSV", "protein stability index": "0.702 ± 0.038"},
      {"sequence": "RGSVSCLQLIGC", "protein stability index": "0.651 ± 0.034"},
      {"sequence": "RGSYLAFRVYGP", "protein stability index": "0.648 ± 0.03"},
      {"sequence": "RGVCVVGGCWLV", "protein stability index": "0.609 ± 0.016"},
      {"sequence": "RGVGEGFRAGCG", "protein stability index": "0.672 ± 0.0098"},
      {"sequence": "RGVIWLVCGGPC", "protein stability index": "0.54 ± 0.032"},
      {"sequence": "RGVVGFVGVVRE", "protein stability index": "0.6445 ± 0.0027"},
      {"sequence": "RGVWWWWGVAGA", "protein stability index": "0.749 ± 0.17"},
      {"sequence": "RGWGGGRKVSVG", "protein stability index": "0.652 ± 0.036"},
      {"sequence": "RGWKDQYIDADR", "protein stability index": "0.689 ± 0.012"},
      {"sequence": "RGWRYRAEGFRG", "protein stability index": "0.663 ± 0.022"},
      {"sequence": "RHGRDNPSGRLN", "protein stability index": "0.6902 ± 0.0046"},
      {"sequence": "RHRFDHWGPGPW", "protein stability index": "0.72 ± 0.055"},
      {"sequence": "RHVCPLLYPCSS", "protein stability index": "0.635 ± 0.036"},
      {"sequence": "RIAARAIISRGG", "protein stability index": "0.657 ± 0.021"},
      {"sequence": "RILSCGCVCFVM", "protein stability index": "0.702 ± 0.031"},
      {"sequence": "RIMFVGYPLDWL", "protein stability index": "0.674 ± 0.041"},
      {"sequence": "RIPSDLTLNPRG", "protein stability index": "0.669 ± 0.05"},
      {"sequence": "RISWLKEATAIK", "protein stability index": "0.689 ± 0.019"},
      {"sequence": "RITSSLCPPLLR", "protein stability index": "0.695 ± 0.013"},
      {"sequence": "RKDNRRIMIKKR", "protein stability index": "0.648 ± 0.015"},
      {"sequence": "RKGFMQRHDTLD", "protein stability index": "0.6749 ± 0.0019"},
      {"sequence": "RKGVSLAILLGP", "protein stability index": "0.67 ± 0.055"},
      {"sequence": "RKKDHKSIIQII", "protein stability index": "0.57779 ± 0.00015"},
      {"sequence": "RKKKRKKKKTER", "protein stability index": "0.647 ± 0.041"},
      {"sequence": "RKKNEKKEDNKK", "protein stability index": "0.747 ± 0.12"},
      {"sequence": "RKKREKREKETN", "protein stability index": "0.598 ± 0.026"},
      {"sequence": "RKKTQQKTQNIQ", "protein stability index": "0.67 ± 0.024"},
      {"sequence": "RKNGEDLKKRGT", "protein stability index": "0.726 ± 0.077"},
      {"sequence": "RKNHPEKKKKPN", "protein stability index": "0.673 ± 0.024"},
      {"sequence": "RKNIKYNTKNSI", "protein stability index": "0.654 ± 0.03"},
      {"sequence": "RKQNVASESERK", "protein stability index": "0.752 ± 0.094"},
      {"sequence": "RKQQGDNHKGRG", "protein stability index": "0.706 ± 0.14"},
      {"sequence": "RKQRAGRRKDKQ", "protein stability index": "0.734 ± 0.043"},
      {"sequence": "RKRIPSITLPPP", "protein stability index": "0.754 ± 0.063"},
      {"sequence": "RKRKEKSLKAKL", "protein stability index": "0.784 ± 0.084"},
      {"sequence": "RKTHTRTQKRKL", "protein stability index": "0.675 ± 0.01"},
      {"sequence": "RKTKIKKLGRDK", "protein stability index": "0.644 ± 0.1"},
      {"sequence": "RKTRKKNRIRGI", "protein stability index": "0.6857 ± 0.0054"},
      {"sequence": "RLAVQCVCQIGI", "protein stability index": "0.621 ± 0.019"},
      {"sequence": "RLDDFSALPPRY", "protein stability index": "0.781 ± 0.064"},
      {"sequence": "RLDFFIFSRWWI", "protein stability index": "0.727 ± 0.031"},
      {"sequence": "RLFASNPALSNL", "protein stability index": "0.709 ± 0.027"},
      {"sequence": "RLFHYPPPRHSY", "protein stability index": "0.61 ± 0.043"},
      {"sequence": "RLFSAWGCGLPL", "protein stability index": "0.7 ± 0.019"},
      {"sequence": "RLGGRDCWGPWG", "protein stability index": "0.693 ± 0.017"},
      {"sequence": "RLGGRGRGSIHS", "protein stability index": "0.652 ± 0.022"},
      {"sequence": "RLGVTVPLSGTV", "protein stability index": "0.5342 ± 0.00099"},
      {"sequence": "RLGWGGVGVAGV", "protein stability index": "0.683 ± 0.013"},
      {"sequence": "RLHAILKRSGLE", "protein stability index": "0.722 ± 0.068"},
      {"sequence": "RLHCEGCDPGSL", "protein stability index": "0.7189 ± 0.0015"},
      {"sequence": "RLIDMNFPVKKE", "protein stability index": "0.709 ± 0.04"},
      {"sequence": "RLLFPTLTAYLL", "protein stability index": "0.63 ± 0.029"},
      {"sequence": "RLLPAPPPPTRP", "protein stability index": "0.693 ± 0.036"},
      {"sequence": "RLLRLLTALPPL", "protein stability index": "0.6387 ± 0.0026"},
      {"sequence": "RLLVGFLSPFSC", "protein stability index": "0.713 ± 0.031"},
      {"sequence": "RLPASGTPAYSE", "protein stability index": "0.67 ± 0.02"},
      {"sequence": "RLPAVPSHPGLL", "protein stability index": "0.729 ± 0.037"},
      {"sequence": "RLPFLPPPPCPP", "protein stability index": "0.716 ± 0.046"},
      {"sequence": "RLPHCLRPPLSP", "protein stability index": "0.669 ± 0.069"},
      {"sequence": "RLPLYAIPPFPP", "protein stability index": "0.636 ± 0.0091"},
      {"sequence": "RLRCRYLSSTYY", "protein stability index": "0.712 ± 0.0078"},
      {"sequence": "RLRDMPRDLTFW", "protein stability index": "0.706 ± 0.12"},
      {"sequence": "RLRGGVPGRTVG", "protein stability index": "0.68 ± 0.078"},
      {"sequence": "RLRPGGHPCVFF", "protein stability index": "0.66 ± 0.041"},
      {"sequence": "RLRPRHPRLLRS", "protein stability index": "0.735 ± 0.034"},
      {"sequence": "RLSPLTLPFCTS", "protein stability index": "0.645 ± 0.06"},
      {"sequence": "RLSPPGFRLGLF", "protein stability index": "0.517 ± 0.029"},
      {"sequence": "RLSRPPRIPRSQ", "protein stability index": "0.654 ± 0.0087"},
      {"sequence": "RLTLAFQKRSPP", "protein stability index": "0.668 ± 0.1"},
      {"sequence": "RLTRRSCLFSIT", "protein stability index": "0.785 ± 0.056"},
      {"sequence": "RLVAGETWAMSR", "protein stability index": "0.674 ± 0.0045"},
      {"sequence": "RMDIRVWATFCG", "protein stability index": "0.705 ± 0.11"},
      {"sequence": "RMEGCRLSLGVP", "protein stability index": "0.63 ± 0.075"},
      {"sequence": "RMGQQISSVRLF", "protein stability index": "0.679 ± 0.0082"},
      {"sequence": "RMKKKKNKARDI", "protein stability index": "0.729 ± 0.045"},
      {"sequence": "RMRTGTKCLSAG", "protein stability index": "0.705 ± 0.17"},
      {"sequence": "RNCSSALPPPPS", "protein stability index": "0.7154 ± 0.0028"},
      {"sequence": "RNERNAKAKNEK", "protein stability index": "0.649 ± 0.012"},
      {"sequence": "RNHHPHHVPTSR", "protein stability index": "0.667 ± 0.03"},
      {"sequence": "RNNKLGIRKSFL", "protein stability index": "0.69 ± 0.035"},
      {"sequence": "RNRGPAIRVRRK", "protein stability index": "0.635 ± 0.089"},
      {"sequence": "RNTPTATHHTTG", "protein stability index": "0.681 ± 0.026"},
      {"sequence": "RNVFVPFMRGSP", "protein stability index": "0.737 ± 0.077"},
      {"sequence": "RPAFPIPSLYPS", "protein stability index": "0.725 ± 0.11"},
      {"sequence": "RPAIPPATPPPP", "protein stability index": "0.649 ± 0.027"},
      {"sequence": "RPALRPSPPLSP", "protein stability index": "0.682 ± 0.056"},
      {"sequence": "RPCPGPLPPPPP", "protein stability index": "0.662 ± 0.013"},
      {"sequence": "RPDSGFPLRGSS", "protein stability index": "0.75 ± 0.098"},
      {"sequence": "RPFSAPLCLLPS", "protein stability index": "0.7 ± 0.024"},
      {"sequence": "RPFSMGSNNIIR", "protein stability index": "0.7 ± 0.022"},
      {"sequence": "RPGRSDRCLRWS", "protein stability index": "0.673 ± 0.017"},
      {"sequence": "RPGWSRGREAVA", "protein stability index": "0.735 ± 0.14"},
      {"sequence": "RPHEAPTPGPVR", "protein stability index": "0.646 ± 0.013"}
    ]}
  ]
}
